Target: RPL26 (Homo sapiens, UniProt P61254 SEQ:1-145)
Experiment: EMSA; supershift with anti-penta His; 1.5 mM Mg acetate, 90 mM K acetate, 30 C

B1: p53 5'UTR (-191 to 2) (ssRNA)
RNA: GGUUUUCCCCUCCCAUGUGCUCAAGACUGGCGCUAAAAGUUUUGAGCUUCUCAAAAGUCUAGAGCCACCGUCCAGGGAGCAGGUAGCUGCUGGGCUCCGGGGACACUUUGCGUUCGGGCUGGGAGCGUGCUUUCCACGACGGUGACACGCUUCCCUGGAUUGGCAGCCAGACUGCCUUCCGGGUCACUGCCAU
**Q.** Does B1 bind?
**A.** binds

Reference: US20090149377, “METHODS FOR REGULATION OF p53 TRANSLATION AND FUNCTION” (ST. JUDE CHILDREN'S RESEARCH HOSPITAL, published 2009)
